From US20080044360A1 (COLLAGEN MEDICAL, published 2008)
Bridge positions count the residues as written; N and C are the ends. Square brackets hold non-standard residues; d marks the D form. Ends that are not written are not given here. NMeA = CN[C@@H](C)C(=O)O

B1: SEQ ID NO 105 (peptide)
peptide: YHACYQ[NMeA]GCWIW
modifications: disulfide 4-9 (inferred)
notes: cyclic, disulfide; also called YHACYQA'GCWIW
B2: SEQ ID NO 164 (peptide)
peptide: [dQ]WTCSGDEYTWHCNYE
modifications: disulfide 4-13 (inferred); not fully specified (N-terminus, C-terminus); printed as qWTCSGDEYTWHCNYE
notes: cyclic, disulfide
B3: SEQ ID NO 170 (peptide)
peptide: QWTCSGD[dE]YTWHCNYE
modifications: disulfide 4-13 (inferred); not fully specified (N-terminus); printed as QWTCSGDeYTWHCNYE
notes: cyclic, disulfide

biological target: T1, rat collagen, acid soluble, type I, rat tail (Upstate 08-115) (rat, UniProt P02454 152-1207; P02466 86-1125); test: dried collagen assay
T1 construct: tissue extract, gelled and dried in wells; also called dried rat collagen
T1 sequence (P02454 152-1207, chain 1 of 2): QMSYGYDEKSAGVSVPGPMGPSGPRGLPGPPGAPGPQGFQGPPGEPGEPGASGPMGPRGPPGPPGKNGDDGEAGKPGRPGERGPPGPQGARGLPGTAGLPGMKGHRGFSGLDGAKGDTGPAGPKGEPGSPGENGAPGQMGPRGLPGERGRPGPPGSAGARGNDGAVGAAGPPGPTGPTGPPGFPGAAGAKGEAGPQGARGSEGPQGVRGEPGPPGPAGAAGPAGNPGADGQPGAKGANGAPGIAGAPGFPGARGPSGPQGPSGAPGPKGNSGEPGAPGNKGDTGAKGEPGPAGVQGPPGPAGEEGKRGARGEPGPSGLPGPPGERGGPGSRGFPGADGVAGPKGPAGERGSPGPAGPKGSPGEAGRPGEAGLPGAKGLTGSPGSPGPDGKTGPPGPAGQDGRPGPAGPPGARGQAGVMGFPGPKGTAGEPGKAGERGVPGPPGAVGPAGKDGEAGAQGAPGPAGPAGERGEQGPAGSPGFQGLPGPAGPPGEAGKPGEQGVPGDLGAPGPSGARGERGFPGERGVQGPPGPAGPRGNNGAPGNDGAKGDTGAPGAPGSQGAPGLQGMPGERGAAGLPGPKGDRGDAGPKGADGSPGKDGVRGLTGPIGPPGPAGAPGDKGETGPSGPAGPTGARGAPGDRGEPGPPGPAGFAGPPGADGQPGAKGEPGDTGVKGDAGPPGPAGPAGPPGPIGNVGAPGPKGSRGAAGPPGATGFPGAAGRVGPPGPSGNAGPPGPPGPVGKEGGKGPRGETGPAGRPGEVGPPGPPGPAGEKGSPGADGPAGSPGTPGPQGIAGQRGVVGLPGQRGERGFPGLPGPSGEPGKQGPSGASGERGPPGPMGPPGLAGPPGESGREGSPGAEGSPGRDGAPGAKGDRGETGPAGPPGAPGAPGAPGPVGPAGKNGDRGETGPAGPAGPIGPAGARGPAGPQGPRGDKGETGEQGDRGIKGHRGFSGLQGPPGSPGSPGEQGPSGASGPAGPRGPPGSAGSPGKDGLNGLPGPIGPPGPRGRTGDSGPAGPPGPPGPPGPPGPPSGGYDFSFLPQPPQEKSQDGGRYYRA
T1 sequence (P02466 86-1125, chain 2 of 2): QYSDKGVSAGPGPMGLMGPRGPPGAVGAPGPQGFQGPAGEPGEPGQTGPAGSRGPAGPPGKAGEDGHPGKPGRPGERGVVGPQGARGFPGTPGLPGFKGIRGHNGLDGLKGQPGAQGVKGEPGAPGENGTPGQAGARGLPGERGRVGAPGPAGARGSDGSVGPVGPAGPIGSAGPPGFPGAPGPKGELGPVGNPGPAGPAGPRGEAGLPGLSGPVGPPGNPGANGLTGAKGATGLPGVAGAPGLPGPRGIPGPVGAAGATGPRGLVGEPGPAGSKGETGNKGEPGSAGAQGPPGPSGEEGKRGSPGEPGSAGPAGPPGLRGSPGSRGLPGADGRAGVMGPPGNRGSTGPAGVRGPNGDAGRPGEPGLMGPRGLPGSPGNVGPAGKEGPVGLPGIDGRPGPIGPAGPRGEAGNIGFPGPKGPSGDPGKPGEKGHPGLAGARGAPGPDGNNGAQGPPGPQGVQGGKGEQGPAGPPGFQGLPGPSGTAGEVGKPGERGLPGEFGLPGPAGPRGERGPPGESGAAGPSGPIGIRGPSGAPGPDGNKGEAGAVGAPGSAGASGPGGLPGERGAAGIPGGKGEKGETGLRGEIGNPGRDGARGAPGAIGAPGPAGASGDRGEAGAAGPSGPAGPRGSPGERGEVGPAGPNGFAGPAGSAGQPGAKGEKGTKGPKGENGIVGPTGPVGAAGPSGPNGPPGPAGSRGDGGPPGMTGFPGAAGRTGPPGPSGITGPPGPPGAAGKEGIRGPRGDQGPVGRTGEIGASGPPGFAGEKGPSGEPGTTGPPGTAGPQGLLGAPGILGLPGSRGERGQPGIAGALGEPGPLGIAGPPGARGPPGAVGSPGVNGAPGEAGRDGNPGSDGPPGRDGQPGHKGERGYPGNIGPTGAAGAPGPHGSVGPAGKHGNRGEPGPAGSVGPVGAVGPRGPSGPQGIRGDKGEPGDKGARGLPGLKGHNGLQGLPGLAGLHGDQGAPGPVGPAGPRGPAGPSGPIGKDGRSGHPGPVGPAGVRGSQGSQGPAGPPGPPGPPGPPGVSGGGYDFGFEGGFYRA
Experimental: (§1) An additional 90 μL is reserved in a HPLC glass vial as a measure of the total concentration.

Compared with GQWTCSGDEYTWHCNY (disulfide 5-14 (inferred), cyclic, disulfide) [SEQ ID NO 123], DWTCSGDHLTWHCNYG (disulfide 4-13 (inferred), cyclic, disulfide) [SEQ ID NO 116] is lower in “% bound” value: 72% for the first, 35% for the second.

DWTCSGDHLTWKCNYG (disulfide 4-13 (inferred), cyclic, disulfide) [SEQ ID NO 117] and YHACYQAGCWIY (disulfide 4-9 (inferred), cyclic, disulfide) [SEQ ID NO 106] are the same in “% bound” value: 24% for the first, 24% for the second.

YSACYQAGCYIY (disulfide 4-9 (inferred), cyclic, disulfide) [SEQ ID NO 110] and YHACYQAGCAIW (disulfide 4-9 (inferred), cyclic, disulfide) [SEQ ID NO 136] are the same in “% bound” value: 2% for the first, 2% for the second.

Going from YAACYQAGCWIW (disulfide 4-9 (inferred), cyclic, disulfide) [SEQ ID NO 132] to WTCSGDEYTWHCNYE (disulfide 3-12 (inferred), cyclic, disulfide) [SEQ ID NO 114], the “% bound” value falls from 37% to 14%.

Compared with B1, YHASYQAGSWIW (printed without cysteines (S for C)) [SEQ ID NO 111] is higher in “% bound” value: 23% for the first, 24% for the second.

First: DWTCSGNHLTWYCNYG (disulfide 4-13 (inferred), cyclic, disulfide) [SEQ ID NO 118]
Second: GQWTCSGDEY[dA]WHCNA[dE] (disulfide 5-14 (inferred), cyclic, disulfide) [SEQ ID NO 124]
The “% bound” value of the first is higher: 67% for the first, 17% for the second.

Going from GQWACSGDEYTWHCNYE (disulfide 5-14 (inferred), cyclic, disulfide) [SEQ ID NO 140] to GQWTCSGDEYTWHCAYE (disulfide 5-14 (inferred); not fully specified (C-terminus), cyclic, disulfide) [SEQ ID NO 149], the “% bound” value rises from 77% to 82%.

Compared with GQWTCSGDAYTWHCAYE (disulfide 5-14 (inferred), cyclic, disulfide) [SEQ ID NO 128], B2 is lower in “% bound” value: 72% for the first, 31% for the second.

Compared with GQWTCSGDEYSWHCNY[dE] (disulfide 5-14 (inferred), cyclic, disulfide) [SEQ ID NO 125], GAWTCSGDEYTWHCNYE (disulfide 5-14 (inferred), cyclic, disulfide) [SEQ ID NO 129] is lower in “% bound” value: 86% for the first, 84% for the second.

Going from B3 to YSACYQAGCWIW (disulfide 4-9 (inferred), cyclic, disulfide) [SEQ ID NO 109], the “% bound” value rises from 35% to 37%.

First: YHACYAAGCWIW (disulfide 4-9 (inferred), cyclic, disulfide) [SEQ ID NO 134]
Second: YHACYQAACWIW (disulfide 4-9 (inferred), cyclic, disulfide) [SEQ ID NO 135]
The “% bound” value of the first is lower: 1% for the first, 88% for the second.

First: YHACYQAGCWIA (disulfide 4-9 (inferred), cyclic, disulfide) [SEQ ID NO 138]
Second: AHACYQAGCWIW (disulfide 4-9 (inferred), cyclic, disulfide) [SEQ ID NO 131]
The “% bound” value of the first is lower: 1% for the first, 12% for the second.

First: GQWTCSGDEYTWHCNYE (disulfide 5-14 (inferred), cyclic, disulfide) [SEQ ID NO 122]
Second: GQATCSGDEYTWHCNYE (disulfide 5-14 (inferred), cyclic, disulfide) [SEQ ID NO 139]
The “% bound” value of the first is higher: 71% for the first, 0% for the second.

Going from DWTCSGDEFTWHCNYE (disulfide 4-13 (inferred), cyclic, disulfide) [SEQ ID NO 119] to GQWTCSGDAYTWHCNYE (disulfide 5-14 (inferred); not fully specified (C-terminus), cyclic, disulfide) [SEQ ID NO 144], the “% bound” value rises from 55% to 77%.

Going from GQWTCSGDEYAWHCNY[dE] (disulfide 5-14 (inferred), cyclic, disulfide) [SEQ ID NO 126] to GQWTCSGDEYTWHCNAE (disulfide 5-14 (inferred); not fully specified (C-terminus), cyclic, disulfide) [SEQ ID NO 150], the “% bound” value falls from 73% to 9%.

Compared with DWTCSGDEYAWHCNY[dE] (disulfide 4-13 (inferred), cyclic, disulfide) [SEQ ID NO 120], GQWTCSGDEYTWACNYE (disulfide 5-14 (inferred); not fully specified (C-terminus), cyclic, disulfide) [SEQ ID NO 148] is higher in “% bound” value: 28% for the first, 73% for the second.

Going from QWTCSGDEYAWHCNYE (disulfide 4-13 (inferred); not fully specified (N-terminus, C-terminus), cyclic, disulfide) [SEQ ID NO 146] to GQWTCSGDEYTWSCNYE (disulfide 5-14 (inferred), cyclic, disulfide) [SEQ ID NO 127], the “% bound” value falls from 77% to 73%.

Compared with GQWTCAGDEYTWHCNYE (disulfide 5-14 (inferred), cyclic, disulfide) [SEQ ID NO 141], GQWTCSGAEYTWHCNYE (disulfide 5-14 (inferred), cyclic, disulfide) [SEQ ID NO 143] is lower in “% bound” value: 83% for the first, 51% for the second.

Compared with GQWTCSGDEATWHCNYE (disulfide 5-14 (inferred); not fully specified (C-terminus), cyclic, disulfide) [SEQ ID NO 145], DWTCSGDPYTWHCNYE (disulfide 4-13 (inferred), cyclic, disulfide) [SEQ ID NO 115] is lower in “% bound” value: 50% for the first, 23% for the second.

Compared with PWTCSGDEYAWHCNY[dE] (disulfide 4-13 (inferred), cyclic, disulfide) [SEQ ID NO 121], GQWTCSGDEYTWHCNYA (disulfide 5-14 (inferred); not fully specified (C-terminus), cyclic, disulfide) [SEQ ID NO 151] is higher in “% bound” value: 72% for the first, 81% for the second.

For DWTCS[dY]DEYTWHCNYE (disulfide 4-13 (inferred), cyclic, disulfide) [SEQ ID NO 182], the “% bound” value was 86%.

biological target: T2, human collagen type I, acid soluble, extracted from placenta (Sigma C7774) (human, UniProt P02452 162-1218; P08123 80-1119); test: dried collagen assay
T2 construct: tissue extract, gelled and dried in wells; also called dried human collagen; h-Collagen
T2 sequence (P02452 162-1218 limits assumed, chain 1 of 2): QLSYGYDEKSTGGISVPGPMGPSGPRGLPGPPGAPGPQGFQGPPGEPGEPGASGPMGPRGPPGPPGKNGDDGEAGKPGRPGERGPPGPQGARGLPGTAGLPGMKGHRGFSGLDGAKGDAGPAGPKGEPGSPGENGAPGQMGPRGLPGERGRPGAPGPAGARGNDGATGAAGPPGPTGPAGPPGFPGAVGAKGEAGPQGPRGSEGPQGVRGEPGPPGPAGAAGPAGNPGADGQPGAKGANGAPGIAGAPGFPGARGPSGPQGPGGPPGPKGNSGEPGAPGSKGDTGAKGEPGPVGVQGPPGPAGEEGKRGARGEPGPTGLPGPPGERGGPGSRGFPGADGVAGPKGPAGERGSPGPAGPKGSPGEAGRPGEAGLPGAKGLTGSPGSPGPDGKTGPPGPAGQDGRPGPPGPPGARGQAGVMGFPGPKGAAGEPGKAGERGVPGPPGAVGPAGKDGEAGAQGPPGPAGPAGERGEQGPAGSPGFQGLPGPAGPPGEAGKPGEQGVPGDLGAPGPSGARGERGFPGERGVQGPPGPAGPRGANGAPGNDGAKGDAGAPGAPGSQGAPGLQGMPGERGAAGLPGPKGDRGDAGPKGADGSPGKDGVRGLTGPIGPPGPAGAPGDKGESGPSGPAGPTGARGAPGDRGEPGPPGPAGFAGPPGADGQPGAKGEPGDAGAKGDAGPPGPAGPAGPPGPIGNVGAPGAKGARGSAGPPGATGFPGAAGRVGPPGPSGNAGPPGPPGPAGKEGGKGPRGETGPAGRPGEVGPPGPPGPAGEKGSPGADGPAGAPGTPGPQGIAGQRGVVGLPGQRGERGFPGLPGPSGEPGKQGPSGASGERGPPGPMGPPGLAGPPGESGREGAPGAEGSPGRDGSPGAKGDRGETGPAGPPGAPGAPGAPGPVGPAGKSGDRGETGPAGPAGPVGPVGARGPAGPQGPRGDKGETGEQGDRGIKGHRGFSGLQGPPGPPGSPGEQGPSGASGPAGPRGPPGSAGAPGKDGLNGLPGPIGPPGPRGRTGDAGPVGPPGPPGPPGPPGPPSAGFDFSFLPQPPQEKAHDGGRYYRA
T2 sequence (P08123 80-1119 limits assumed, chain 2 of 2): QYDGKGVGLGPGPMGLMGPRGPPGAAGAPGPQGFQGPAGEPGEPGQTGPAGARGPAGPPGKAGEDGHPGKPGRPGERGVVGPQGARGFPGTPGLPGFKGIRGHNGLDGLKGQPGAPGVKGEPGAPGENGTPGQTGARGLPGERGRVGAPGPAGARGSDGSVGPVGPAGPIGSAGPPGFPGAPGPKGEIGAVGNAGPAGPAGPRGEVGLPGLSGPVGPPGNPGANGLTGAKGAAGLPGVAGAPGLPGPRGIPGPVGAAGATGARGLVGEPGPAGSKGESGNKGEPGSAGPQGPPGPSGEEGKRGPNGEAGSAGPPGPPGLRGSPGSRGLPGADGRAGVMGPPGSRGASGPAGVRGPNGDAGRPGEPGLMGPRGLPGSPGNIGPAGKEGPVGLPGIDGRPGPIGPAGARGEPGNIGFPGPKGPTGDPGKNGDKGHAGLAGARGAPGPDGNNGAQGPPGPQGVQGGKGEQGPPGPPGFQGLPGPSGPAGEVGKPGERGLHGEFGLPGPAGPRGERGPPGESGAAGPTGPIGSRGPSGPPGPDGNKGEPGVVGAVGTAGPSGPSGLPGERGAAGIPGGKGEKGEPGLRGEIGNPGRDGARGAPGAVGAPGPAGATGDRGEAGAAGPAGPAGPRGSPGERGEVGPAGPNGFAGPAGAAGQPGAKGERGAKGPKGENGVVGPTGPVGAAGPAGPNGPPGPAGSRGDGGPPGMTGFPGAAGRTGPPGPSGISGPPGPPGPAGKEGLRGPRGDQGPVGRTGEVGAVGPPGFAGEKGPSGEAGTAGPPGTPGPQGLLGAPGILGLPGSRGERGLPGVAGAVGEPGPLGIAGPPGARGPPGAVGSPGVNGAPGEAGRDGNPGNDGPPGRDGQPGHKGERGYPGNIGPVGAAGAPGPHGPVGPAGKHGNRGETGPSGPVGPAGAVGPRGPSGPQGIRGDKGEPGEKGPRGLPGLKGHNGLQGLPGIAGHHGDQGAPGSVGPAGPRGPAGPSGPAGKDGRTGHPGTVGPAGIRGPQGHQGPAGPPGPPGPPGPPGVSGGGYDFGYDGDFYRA
Experimental: as §1

Compared with GQWTCSGDEYTWHCNY (disulfide 5-14 (inferred), cyclic, disulfide) [SEQ ID NO 123], DWTCSGDHLTWHCNYG (disulfide 4-13 (inferred), cyclic, disulfide) [SEQ ID NO 116] is lower in “% bound” value: 59% for the first, 58% for the second.

First: DWTCSGDHLTWKCNYG (disulfide 4-13 (inferred), cyclic, disulfide) [SEQ ID NO 117]
Second: YHACYQAGCWIY (disulfide 4-9 (inferred), cyclic, disulfide) [SEQ ID NO 106]
The “% bound” value of the first is higher: 38% for the first, 9% for the second.

Going from YSACYQAGCYIY (disulfide 4-9 (inferred), cyclic, disulfide) [SEQ ID NO 110] to YHACYQAGCAIW (disulfide 4-9 (inferred), cyclic, disulfide) [SEQ ID NO 136], the “% bound” value falls from 10% to 2%.

First: YAACYQAGCWIW (disulfide 4-9 (inferred), cyclic, disulfide) [SEQ ID NO 132]
Second: WTCSGDEYTWHCNYE (disulfide 3-12 (inferred), cyclic, disulfide) [SEQ ID NO 114]
The “% bound” value of the first is higher: 53% for the first, 19% for the second.

First: B1
Second: YHASYQAGSWIW (printed without cysteines (S for C)) [SEQ ID NO 111]
The “% bound” value of the first is higher: 9% for the first, 0% for the second.

Compared with DWTCSGNHLTWYCNYG (disulfide 4-13 (inferred), cyclic, disulfide) [SEQ ID NO 118], GQWTCSGDEY[dA]WHCNA[dE] (disulfide 5-14 (inferred), cyclic, disulfide) [SEQ ID NO 124] is lower in “% bound” value: 68% for the first, 24% for the second.

Going from GQWACSGDEYTWHCNYE (disulfide 5-14 (inferred), cyclic, disulfide) [SEQ ID NO 140] to GQWTCSGDEYTWHCAYE (disulfide 5-14 (inferred); not fully specified (C-terminus), cyclic, disulfide) [SEQ ID NO 149], the “% bound” value falls from 84% to 82%.

Compared with GQWTCSGDAYTWHCAYE (disulfide 5-14 (inferred), cyclic, disulfide) [SEQ ID NO 128], B2 is lower in “% bound” value: 80% for the first, 46% for the second.

First: GQWTCSGDEYSWHCNY[dE] (disulfide 5-14 (inferred), cyclic, disulfide) [SEQ ID NO 125]
Second: GAWTCSGDEYTWHCNYE (disulfide 5-14 (inferred), cyclic, disulfide) [SEQ ID NO 129]
The “% bound” value of the first is lower: 85% for the first, 87% for the second.

Going from B3 to YSACYQAGCWIW (disulfide 4-9 (inferred), cyclic, disulfide) [SEQ ID NO 109], the “% bound” value falls from 49% to 21%.

Compared with YHACYAAGCWIW (disulfide 4-9 (inferred), cyclic, disulfide) [SEQ ID NO 134], YHACYQAACWIW (disulfide 4-9 (inferred), cyclic, disulfide) [SEQ ID NO 135] is higher in “% bound” value: 14% for the first, 72% for the second.

Going from YHACYQAGCWIA (disulfide 4-9 (inferred), cyclic, disulfide) [SEQ ID NO 138] to AHACYQAGCWIW (disulfide 4-9 (inferred), cyclic, disulfide) [SEQ ID NO 131], the “% bound” value rises from 2% to 7%.

Going from GQWTCSGDEYTWHCNYE (disulfide 5-14 (inferred), cyclic, disulfide) [SEQ ID NO 122] to GQATCSGDEYTWHCNYE (disulfide 5-14 (inferred), cyclic, disulfide) [SEQ ID NO 139], the “% bound” value falls from 71% to 1%.

Going from DWTCSGDEFTWHCNYE (disulfide 4-13 (inferred), cyclic, disulfide) [SEQ ID NO 119] to GQWTCSGDAYTWHCNYE (disulfide 5-14 (inferred); not fully specified (C-terminus), cyclic, disulfide) [SEQ ID NO 144], the “% bound” value rises from 55% to 87%.

First: GQWTCSGDEYAWHCNY[dE] (disulfide 5-14 (inferred), cyclic, disulfide) [SEQ ID NO 126]
Second: GQWTCSGDEYTWHCNAE (disulfide 5-14 (inferred); not fully specified (C-terminus), cyclic, disulfide) [SEQ ID NO 150]
The “% bound” value of the first is higher: 68% for the first, 16% for the second.

First: DWTCSGDEYAWHCNY[dE] (disulfide 4-13 (inferred), cyclic, disulfide) [SEQ ID NO 120]
Second: GQWTCSGDEYTWACNYE (disulfide 5-14 (inferred); not fully specified (C-terminus), cyclic, disulfide) [SEQ ID NO 148]
The “% bound” value of the first is lower: 38% for the first, 66% for the second.

Compared with QWTCSGDEYAWHCNYE (disulfide 4-13 (inferred); not fully specified (N-terminus, C-terminus), cyclic, disulfide) [SEQ ID NO 146], GQWTCSGDEYTWSCNYE (disulfide 5-14 (inferred), cyclic, disulfide) [SEQ ID NO 127] is lower in “% bound” value: 82% for the first, 80% for the second.

Compared with GQWTCAGDEYTWHCNYE (disulfide 5-14 (inferred), cyclic, disulfide) [SEQ ID NO 141], GQWTCSGAEYTWHCNYE (disulfide 5-14 (inferred), cyclic, disulfide) [SEQ ID NO 143] is lower in “% bound” value: 87% for the first, 66% for the second.

First: GQWTCSGDEATWHCNYE (disulfide 5-14 (inferred); not fully specified (C-terminus), cyclic, disulfide) [SEQ ID NO 145]
Second: DWTCSGDPYTWHCNYE (disulfide 4-13 (inferred), cyclic, disulfide) [SEQ ID NO 115]
The “% bound” value of the first is higher: 68% for the first, 39% for the second.

Going from PWTCSGDEYAWHCNY[dE] (disulfide 4-13 (inferred), cyclic, disulfide) [SEQ ID NO 121] to GQWTCSGDEYTWHCNYA (disulfide 5-14 (inferred); not fully specified (C-terminus), cyclic, disulfide) [SEQ ID NO 151], the “% bound” value rises from 57% to 87%.

For DWTCS[dY]DEYTWHCNYE (disulfide 4-13 (inferred), cyclic, disulfide) [SEQ ID NO 182], the “% bound” value was 89%.
